Each block holds one binder with its values, some of them ahead of it. Ends that are not written are not given here.
B1: rat-mouse chimeric recombinant antibody 5811 mFab (Fab, V domains shown)
VH: EMQLVESGGGLVQPKESLKISCAASGFTFNNAAMYWVRQAPGKGLEWVARIRTKPNNYATSYADSVKGRFTISRDDSKSMVYLQMDNLKSEDTAMYYCTADYSRGDRWGQGVMVTVSS
VL: NIQMTQSPPVLSASVGDRVTLSCKASQNINKNLDWYQQKHGEAPKLLMYYANNLQTGIPSRFSGSGSGTDYTLTISSLQPEDVATYYCYQYKNGWTFGGGTKLELKR

Assays:
[1] = molecular target: T1, biotinylated peptide corresponding to residues 117 to 126 of human alpha synuclein (PVDPDNEAYE) (human, also: biotinylated, position not given here); assay: streptavidin-capture ELISA on biotinylated peptide PVDPDNEAYE, HRP secondary antibody, TMB, OD 630 nm
T1 construct: Captured on streptavidin plates for the ELISA
T1 peptide: PVDPDNEAYE

[2] = molecular target: T2, recombinant mouse alpha synuclein fibrils (mouse, UniProt O55042 1-140); assay: SPR (Biacore T200), antigen amine-coupled to CM5 chip, Fab as analyte, 1:1 model
Description: (§1) Interaction kinetics were determined by using surface plasmon resonance technology on a Biacore T200 instrument. Three different ligands including recombinant full-length human alpha synuclein monomer, purified recombinant human alpha synuclein fibrils, and purified recombinant mouse alpha synuclein fibrils, prepared as described herein, were each immobilized on three different flow cells of a CM5 chip surface using amine-coupling chemistry. The three ligands were prepared in 10 mM NaAc, pH 3.5, and immobilized onto separate flow cell surfaces to reach an immobilization level of about 30 response units (RU) for alpha synuclein monomer, about 40 RU for human alpha synuclein fibrils, and about 300 RU for mouse alpha synuclein fibrils respectively, at a flow rate of 10 μl/min. The buffer HBS-EP+(GE healthcare Bio-Sciences AB) was used as running buffer for both ligand immobilization and kinetics assay. […] The surface was regenerated by one injection of 50 mM HCl for 90 s at 10 μl/min, and another injection of 50 mM HCl for 60 s at 10 μl/min. The data were analyzed using the Biacore T200 evaluation software (version 3.0) using the bivalent analyte model with assumed no bulk contribution (RI=0) and global Rmax for mIgG1 format, and 1:1 model with flexible bulk contribution (local RI) and global Rmax.

[3] = molecular target: T3, recombinant human alpha synuclein fibrils (human, UniProt P37840 1-140); assay: as above
Description: as §1

[4] = molecular target: T4, recombinant full-length human alpha synuclein monomer (human, UniProt P37840 1-140); assay: as above
Description: as §1

[5] = molecular target: T3, recombinant human alpha synuclein …; assay: kinetics on alpha synuclein fibrils; method not named in Example 4 (ka1/kd1 as in the Biacore bivalent analyte model)
[6] = molecular target: T2, recombinant mouse alpha synuclein …; assay: SPR (Biacore T200), antigen amine-coupled to CM5 chip, IgG as analyte, bivalent analyte model (KD1)
Description: as §1

[7] = molecular target: T3, recombinant human alpha synuclein …; assay: as above
Description: as §1

[8] = molecular target: T4, recombinant full-length human alpha …; assay: as above
Description: as §1

[9] = molecular target: T5, human beta synuclein (rPeptide) (human, UniProt Q16143 1-134); assay: Western blot
T5 construct: also called rPeptide beta synuclein; human betα-synuclein
T5 sequence (Q16143 whole entry): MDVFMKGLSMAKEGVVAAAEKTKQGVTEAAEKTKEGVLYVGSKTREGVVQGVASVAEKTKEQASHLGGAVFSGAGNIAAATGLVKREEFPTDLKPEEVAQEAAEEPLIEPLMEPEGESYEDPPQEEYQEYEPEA
Description: The binding of antibodies raised against human alpha synuclein to human beta synuclein were tested by Western blot using rPeptide beta synuclein. […] The membrane was blocked in PBS with 3% BSA and 0.1% Tween20. […] The blot was washed extensively in PBS with 0.1% Tween20, PBS and water. Chemi-luminescence was measured after addition of ECL Western blot substrate (Pierce).
The blot was washed after 1-hour incubation at room temperature with 0.1% Tween in PBS.

[10] = molecular target: B1; assay: competitive SPR (Biacore 3000): 50 nM 5811 mFab pre-incubated with 1 µM peptide, injected over immobilised human alpha synuclein monomer and fibrils
Description: Recombinant human alpha synuclein monomer and pre-formed alpha synuclein fibrils were immobilized on a CM5 chip using a Biacore 3000 instrument (GE Healthcare). Following activation of the carboxymethyl dextran surface by injection of 100 μl of a fresh 1:1 (v/v) mixture of 50 mM N-hydroxysuccimide and 200 mM 1-ethyl-3-(3-dimethylaminopropyl)-carbodiimide at a flow rate of 10 μl/min HBS-EP (GE Healthcare) as running buffer, coupling was achieved by injecting 100 μl of monomer and fibrils, at 5 μM in 10 mM acetate pH 5.0, over separate flow cells. A reference flow cell was activated in the same manner and then all flow cell surfaces were deactivated with a 50 μl pulse of 1 M ethanolamine.HCl pH 8.5.
Peptide solutions were prepared in running buffer at 100 μM and a peptide blank control prepared as a 1 in 100 dilution of DMSO in running buffer. […] Sensograms were recorded for each sample by injecting 30 μl of the mixture at 10 μl/min and recording a report point 5 seconds before the end of the injection. The chip was regenerated at the end of each cycle by two 10 μl injections of 40 mM HCl and one injection of 5 mM NaOH. Control cycles were alternated with peptide cycles.

[11] = molecular target: T3, recombinant human alpha synuclein …; assay: cell-based or functional assay
[12] = molecular target: T3, recombinant human alpha synuclein …; assay: cell-based or functional assay; remark: listed apart in the source
[13] = molecular target: T3, recombinant human alpha synuclein …; assay: kinetics on human fibril; method not named (same values as Table 5)

Binder: B1
- EC50 (read off the curve) [1]: ~0.4 µg/mL
- Kd [2]: 42900 pM
- Kd [3]: 600 pM
- Kd [4]: 290 pM

- Kd [5]: 15.6 pM
B2: Chimeric rat-human 5811 antibody (antibody, V domains shown)
VH: EMQLVESGGGLVQPKESLKISCAASGFTFNNAAMYWVRQAPGKGLEWVARIRTKPNNYATSYADSVKGRFTISRDDSKSMVYLQMDNLKSEDTAMYYCTADYSRGDRWGQGVMVTVSS
VL: NIQMTQSPPVLSASVGDRVTLSCKASQNINKNLDWYQQKHGEAPKLLMYYANNLQTGIPSRFSGSGSGTDYTLTISSLQPEDVATYYCYQYKNGWTFGGGTKLELK
notes: It was prepared like the humanized antibodies, with the human kappa constant region (Km3) and human gamma-4 with S241P (IgG4P); also called parental rat-human antibody

- Kd [6]: 119000 pM
- Kd [7]: 30 pM
- Kd [8]: 530 pM
B3: rat-mouse chimeric recombinant antibody 5811 mIgG1 (antibody, V domains shown)
VH: EMQLVESGGGLVQPKESLKISCAASGFTFNNAAMYWVRQAPGKGLEWVARIRTKPNNYATSYADSVKGRFTISRDDSKSMVYLQMDNLKSEDTAMYYCTADYSRGDRWGQGVMVTVSS
VL: NIQMTQSPPVLSASVGDRVTLSCKASQNINKNLDWYQQKHGEAPKLLMYYANNLQTGIPSRFSGSGSGTDYTLTISSLQPEDVATYYCYQYKNGWTFGGGTKLELKR
- binding result [9]: no binding (tested: 1 micro gram of synuclein per lane)

- binding result [10]: binds
Binder: Ac-LEDMPVDPDN-NH2 [peptide AS113-122]

- binding result [10]: no binding (tested: 1 µM)
Binder: Ac-GILEDMPVDP-NH2 [peptide AS111-120]

- binding result [10]: no binding (tested: 1 µM)
B4: peptide AS104-113 (peptide)
peptide: Ac-EEGAPQEGIL-NH2
notes: Synthetic peptide of human alpha synuclein

- binding result [10]: no binding (tested: 1 µM)
Binder: Ac-YEMPSEEGYQ-NH2 [peptide AS125-134]

- binding result [10]: no binding (tested: 1 µM)
Binder: Ac-EGYQDYEPEA-OH (also called AS131-140) [131-140]

- binding result [10]: no binding (tested: 1 µM)
Binder: Ac-QEGILEDMPV-NH2 [peptide AS109-118]

- binding result [10]: no binding (tested: 1 µM)
Binder: Ac-DNEAYEMPSE-NH2 [peptide AS121-130]

- binding result [10]: binds
Binder: Ac-DMPVDPDNEA-NH2 [peptide AS115-124]

- binding result [10]: binds
Binder: Ac-DPDNEAYEMP-NH2 [peptide AS119-128]

- binding result [10]: no binding (tested: 1 µM)
Binder: Ac-SEEGYQDYEP-NH2 [129-138]

- Kd [5]: 15.9 pM
- koff [5]: 5.17e-05 s⁻¹
- kon [5]: 3.26e+06 M⁻¹ s⁻¹
- IC50, aggregation assay on mouse primary neurons (pSer129 alpha synuclein signal) [11]: < 5 nM
- IC50, cell-based aggregation assay (HEK cells expressing alpha synuclein, % pSer129+ cells) [11]: ≤ 5 nM
B5: Antibody 5811gL8gH4 IgG4P (antibody, V domains shown)
VH: EVQLVESGGGLVKPGGSLRLSCAASGFTFNNAAMYWVRQAPGKGLEWVARIRTKPNNYATSYADSVKGRFTISRDDSKNTLYLQMNSLKTEDTAVYYCTADYSRGDRWGQGTMVTVSS
VL: DIQMTQSPSSLSASVGDRVTITCKASQNINKNLDWYQQKPGKAPKLLIYYANNLQTGVPSRFSGSGSGTDFTLTISSLQPEDFATYYCYQYKNGWTFGQGTKVEIKR

- Kd [5]: 15 pM
- koff [5]: 4.1e-05 s⁻¹
- kon [5]: 2.74e+06 M⁻¹ s⁻¹
- IC50 (nM), cell-based aggregation assays [12]: < 5 nM
- IC50, aggregation assay on mouse primary neurons (pSer129 alpha synuclein signal) [11]: < 5 nM
- IC50, cell-based aggregation assay (HEK cells expressing alpha synuclein, % pSer129+ cells) [11]: ≤ 5 nM
- Kd [13]: 15 pM
- koff [13]: 4.1e-05 s⁻¹
- kon [13]: 2.74e+06 M⁻¹ s⁻¹
B6: Antibody 5811gL5gH4 IgG4P (antibody, V domains shown)
VH: EVQLVESGGGLVKPGGSLRLSCAASGFTFNNAAMYWVRQAPGKGLEWVARIRTKPNNYATSYADSVKGRFTISRDDSKNTLYLQMNSLKTEDTAVYYCTADYSRGDRWGQGTMVTVSS
VL: DIQMTQSPSSLSASVGDRVTITCKASQNINKNLDWYQQKPGKAPKLLIYYANNLQTGVPSRFSGSGSGTDYTLTISSLQPEDFATYYCYQYKNGWTFGQGTKVEIKR
notes: also called VR5811

- Kd [5]: 18.5 pM
- koff [5]: 2.04e-05 s⁻¹
- kon [5]: 1.1e+06 M⁻¹ s⁻¹
- IC50, aggregation assay on mouse primary neurons (pSer129 alpha synuclein signal) [11]: < 5 nM
- IC50, cell-based aggregation assay (HEK cells expressing alpha synuclein, % pSer129+ cells) [11]: ≤ 5 nM
B7: Antibody 5811gL14gH4 IgG4P (antibody, V domains shown)
VH: EVQLVESGGGLVKPGGSLRLSCAASGFTFNNAAMYWVRQAPGKGLEWVARIRTKPNNYATSYADSVKGRFTISRDDSKNTLYLQMNSLKTEDTAVYYCTADYSRGDRWGQGTMVTVSS
VL: DIQMTQSPSSLSASVGDRVTITCKASQNINKNLDWYQQKPGKAPKLLIYYANNLQTGVPSRFSGSGSGTDFTLTISSLQPEDFATYYCYQYKNAWTFGQGTKVEIKR

- binding result [10]: no binding (tested: 1 µM)
Binder: Ac-EAYEMPSEEG-NH2 [peptide AS123-132]

- binding result [10]: no binding (tested: 1 µM)
Binder: Ac-MPSEEGYQDY-NH2 [peptide AS127-136]

Reference: US20210101964A1 (UCB, published 2021)
